± gives the uncertainty stated by the source.
B1: Friend leukemia integration 1 transcription factor, residues 116 to 197; numbered along this chain, Q01543 (parent)
chain: NMTTNERRVIVPADPTLWTQEHVRQWLEWAIKEYSLMEIDTSFFQNMDGKELCKMNKEDFLRATTLYNTEVLLSHLSYLRES

Variants of: B1
Assay: abundance fitness (aPCA) (normalised: wild type 0, dead -1); higher = more abundant; growth selection in yeast, the domain comes from the species named
Conditions: Homo sapiens

Variant	abundance fitness
NMTTNERRVIVPHDPTLWTQEHVRQWLEWAIKEYSLMEIDTSFFQNMDGKELCKMNKEDFLRATTLYNTEVLLSHLSYLRES [A13H]	-0.179 ± 0.14
NMTTNERRVIVPVDPTLWTQEHVRQWLEWAIKEYSLMEIDTSFFQNMDGKELCKMNKEDFLRATTLYNTEVLLSHLSYLRES [A13V]	0.017 ± 0.055
NMTTNERRVIVPEDPTLWTQEHVRQWLEWAIKEYSLMEIDTSFFQNMDGKELCKMNKEDFLRATTLYNTEVLLSHLSYLRES [A13E]	0.189 ± 0.068
NMTTNERRVIVPPDPTLWTQEHVRQWLEWAIKEYSLMEIDTSFFQNMDGKELCKMNKEDFLRATTLYNTEVLLSHLSYLRES [A13P]	0.162 ± 0.065
NMTTNERRVIVPQDPTLWTQEHVRQWLEWAIKEYSLMEIDTSFFQNMDGKELCKMNKEDFLRATTLYNTEVLLSHLSYLRES [A13Q]	0.106 ± 0.07
NMTTNERRVIVPTDPTLWTQEHVRQWLEWAIKEYSLMEIDTSFFQNMDGKELCKMNKEDFLRATTLYNTEVLLSHLSYLRES [A13T]	0.051 ± 0.077
NMTTNERRVIVPMDPTLWTQEHVRQWLEWAIKEYSLMEIDTSFFQNMDGKELCKMNKEDFLRATTLYNTEVLLSHLSYLRES [A13M]	-0.036 ± 0.072
NMTTNERRVIVPWDPTLWTQEHVRQWLEWAIKEYSLMEIDTSFFQNMDGKELCKMNKEDFLRATTLYNTEVLLSHLSYLRES [A13W]	0.023 ± 0.063
NMTTNERRVIVPIDPTLWTQEHVRQWLEWAIKEYSLMEIDTSFFQNMDGKELCKMNKEDFLRATTLYNTEVLLSHLSYLRES [A13I]	0.048 ± 0.1
NMTTNERRVIVPNDPTLWTQEHVRQWLEWAIKEYSLMEIDTSFFQNMDGKELCKMNKEDFLRATTLYNTEVLLSHLSYLRES [A13N]	0.183 ± 0.11
NMTTNERRVIVPRDPTLWTQEHVRQWLEWAIKEYSLMEIDTSFFQNMDGKELCKMNKEDFLRATTLYNTEVLLSHLSYLRES [A13R]	0.023 ± 0.041
NMTTNERRVIVPFDPTLWTQEHVRQWLEWAIKEYSLMEIDTSFFQNMDGKELCKMNKEDFLRATTLYNTEVLLSHLSYLRES [A13F]	-0.081 ± 0.086
NMTTNERRVIVPYDPTLWTQEHVRQWLEWAIKEYSLMEIDTSFFQNMDGKELCKMNKEDFLRATTLYNTEVLLSHLSYLRES [A13Y]	-0.072 ± 0.084
NMTTNERRVIVPLDPTLWTQEHVRQWLEWAIKEYSLMEIDTSFFQNMDGKELCKMNKEDFLRATTLYNTEVLLSHLSYLRES [A13L]	-0.003 ± 0.04
NMTTNERRVIVPDDPTLWTQEHVRQWLEWAIKEYSLMEIDTSFFQNMDGKELCKMNKEDFLRATTLYNTEVLLSHLSYLRES [A13D]	0.121 ± 0.088
NMTTNERRVIVTADPTLWTQEHVRQWLEWAIKEYSLMEIDTSFFQNMDGKELCKMNKEDFLRATTLYNTEVLLSHLSYLRES [P12T]	-0.021 ± 0.097
NMTTNERRVIVNADPTLWTQEHVRQWLEWAIKEYSLMEIDTSFFQNMDGKELCKMNKEDFLRATTLYNTEVLLSHLSYLRES [P12N]	-0.021 ± 0.27

Variant	abundance fitness
NMTTNERRVIVMADPTLWTQEHVRQWLEWAIKEYSLMEIDTSFFQNMDGKELCKMNKEDFLRATTLYNTEVLLSHLSYLRES [P12M]	-0.095 ± 0.12
NMTTNERRVIVRADPTLWTQEHVRQWLEWAIKEYSLMEIDTSFFQNMDGKELCKMNKEDFLRATTLYNTEVLLSHLSYLRES [P12R]	-0.053 ± 0.077
NMTTNERRVIVVADPTLWTQEHVRQWLEWAIKEYSLMEIDTSFFQNMDGKELCKMNKEDFLRATTLYNTEVLLSHLSYLRES [P12V]	-0.447 ± 0.1
NMTTNERRVIVYADPTLWTQEHVRQWLEWAIKEYSLMEIDTSFFQNMDGKELCKMNKEDFLRATTLYNTEVLLSHLSYLRES [P12Y]	-0.227 ± 0.19
NMTTNERRVIVLADPTLWTQEHVRQWLEWAIKEYSLMEIDTSFFQNMDGKELCKMNKEDFLRATTLYNTEVLLSHLSYLRES [P12L]	-0.344 ± 0.098
NMTTNERRVIVSADPTLWTQEHVRQWLEWAIKEYSLMEIDTSFFQNMDGKELCKMNKEDFLRATTLYNTEVLLSHLSYLRES [P12S]	0.079 ± 0.087
NMTTNERRVIVPADPILWTQEHVRQWLEWAIKEYSLMEIDTSFFQNMDGKELCKMNKEDFLRATTLYNTEVLLSHLSYLRES [T16I]	-0.036 ± 0.3
NMTTNERRVIVPADPMLWTQEHVRQWLEWAIKEYSLMEIDTSFFQNMDGKELCKMNKEDFLRATTLYNTEVLLSHLSYLRES [T16M]	-0.022 ± 0.12
NMTTNERRVIVPADPDLWTQEHVRQWLEWAIKEYSLMEIDTSFFQNMDGKELCKMNKEDFLRATTLYNTEVLLSHLSYLRES [T16D]	-0.082 ± 0.38
NMTTNERRVIVPADPCLWTQEHVRQWLEWAIKEYSLMEIDTSFFQNMDGKELCKMNKEDFLRATTLYNTEVLLSHLSYLRES [T16C]	-0.357 ± 0.45
NMTTNERRVIVPADPELWTQEHVRQWLEWAIKEYSLMEIDTSFFQNMDGKELCKMNKEDFLRATTLYNTEVLLSHLSYLRES [T16E]	-0.159 ± 0.18
NMTTNERRVIVPADPNLWTQEHVRQWLEWAIKEYSLMEIDTSFFQNMDGKELCKMNKEDFLRATTLYNTEVLLSHLSYLRES [T16N]	-0.22 ± 0.33
NMTTNERRVIVPADPFLWTQEHVRQWLEWAIKEYSLMEIDTSFFQNMDGKELCKMNKEDFLRATTLYNTEVLLSHLSYLRES [T16F]	0 ± 0.24
NMTTNERRVIVPADPKLWTQEHVRQWLEWAIKEYSLMEIDTSFFQNMDGKELCKMNKEDFLRATTLYNTEVLLSHLSYLRES [T16K]	-0.057 ± 0.055
NMTTNERRVIVPADPALWTQEHVRQWLEWAIKEYSLMEIDTSFFQNMDGKELCKMNKEDFLRATTLYNTEVLLSHLSYLRES [T16A]	0.086 ± 0.11
NMTTNERRVIVPADPLLWTQEHVRQWLEWAIKEYSLMEIDTSFFQNMDGKELCKMNKEDFLRATTLYNTEVLLSHLSYLRES [T16L]	-0.108 ± 0.089
NMTTNERRVIVPADPGLWTQEHVRQWLEWAIKEYSLMEIDTSFFQNMDGKELCKMNKEDFLRATTLYNTEVLLSHLSYLRES [T16G]	-0.142 ± 0.094

From the Human Domainome abundance scans (Beltran et al. 2025)
